Measured values: IntAct's records for PubMed 21134644

B1: Integrin beta-3 (Homo sapiens), P05106 (parent)
chain: MRARPRPRPLWATVLALGALAGVGVGGPNICTTRGVSSCQQCLAVSPMCAWCSDEALPLGSPRCDLKENLLKDNCAPESIEFPVSEARVLEDRPLSDKGSGDSSQVTQVSPQRIALRLRPDDSKNFSIQVRQVEDYPVDIYYLMDLSYSMKDDLWSIQNLGTKLATQMRKLTSNLRIGFGAFVDKPVSPYMYISPPEALENPCYDMKTTCLPMFGYKHVLTLTDQVTRFNEEVKKQSVSRNRDAPEGGFDAIMQATVCDEKIGWRNDASHLLVFTTDAKTHIALDGRLAGIVQPNDGQCHVGSDNHYSASTTMDYPSLGLMTEKLSQKNINLIFAVTENVVNLYQNYSELIPGTTVGVLSMDSSNVLQLIVDAYGKIRSKVELEVRDLPEELSLSFNATCLNNEVIPGLKSCMGLKIGDTVSFSIEAKVRGCPQEKEKSFTIKPVGFKDSLIVQVTFDCDCACQAQAEPNSHRCNNGNGTFECGVCRCGPGWLGSQCECSEEDYRPSQQDECSPREGQPVCSQRGECLCGQCVCHSSDFGKITGKYCECDDFSCVRYKGEMCSGHGQCSCGDCLCDSDWTGYYCNCTTRTDTCMSSNGLLCSGRGKCECGSCVCIQPGSYGDTCEKCPTCPDACTFKKECVECKKFDRGALHDENTCNRYCRDEIESVKELKDTGKDAVNCTYKNEDDCVVRFQYYEDSSGKSILYVVEEPECPKGPDILVVLLSVMGAILLIGLAALLIWKLLITIHDRKEFAKFEEERARAKWDTANNPLYKEATSTFTNITYRGT

Variants of: B1
Details: with tln1_mouse Tln1, P26039
Chain of tln1_mouse Tln1, P26039 (P26039 whole entry): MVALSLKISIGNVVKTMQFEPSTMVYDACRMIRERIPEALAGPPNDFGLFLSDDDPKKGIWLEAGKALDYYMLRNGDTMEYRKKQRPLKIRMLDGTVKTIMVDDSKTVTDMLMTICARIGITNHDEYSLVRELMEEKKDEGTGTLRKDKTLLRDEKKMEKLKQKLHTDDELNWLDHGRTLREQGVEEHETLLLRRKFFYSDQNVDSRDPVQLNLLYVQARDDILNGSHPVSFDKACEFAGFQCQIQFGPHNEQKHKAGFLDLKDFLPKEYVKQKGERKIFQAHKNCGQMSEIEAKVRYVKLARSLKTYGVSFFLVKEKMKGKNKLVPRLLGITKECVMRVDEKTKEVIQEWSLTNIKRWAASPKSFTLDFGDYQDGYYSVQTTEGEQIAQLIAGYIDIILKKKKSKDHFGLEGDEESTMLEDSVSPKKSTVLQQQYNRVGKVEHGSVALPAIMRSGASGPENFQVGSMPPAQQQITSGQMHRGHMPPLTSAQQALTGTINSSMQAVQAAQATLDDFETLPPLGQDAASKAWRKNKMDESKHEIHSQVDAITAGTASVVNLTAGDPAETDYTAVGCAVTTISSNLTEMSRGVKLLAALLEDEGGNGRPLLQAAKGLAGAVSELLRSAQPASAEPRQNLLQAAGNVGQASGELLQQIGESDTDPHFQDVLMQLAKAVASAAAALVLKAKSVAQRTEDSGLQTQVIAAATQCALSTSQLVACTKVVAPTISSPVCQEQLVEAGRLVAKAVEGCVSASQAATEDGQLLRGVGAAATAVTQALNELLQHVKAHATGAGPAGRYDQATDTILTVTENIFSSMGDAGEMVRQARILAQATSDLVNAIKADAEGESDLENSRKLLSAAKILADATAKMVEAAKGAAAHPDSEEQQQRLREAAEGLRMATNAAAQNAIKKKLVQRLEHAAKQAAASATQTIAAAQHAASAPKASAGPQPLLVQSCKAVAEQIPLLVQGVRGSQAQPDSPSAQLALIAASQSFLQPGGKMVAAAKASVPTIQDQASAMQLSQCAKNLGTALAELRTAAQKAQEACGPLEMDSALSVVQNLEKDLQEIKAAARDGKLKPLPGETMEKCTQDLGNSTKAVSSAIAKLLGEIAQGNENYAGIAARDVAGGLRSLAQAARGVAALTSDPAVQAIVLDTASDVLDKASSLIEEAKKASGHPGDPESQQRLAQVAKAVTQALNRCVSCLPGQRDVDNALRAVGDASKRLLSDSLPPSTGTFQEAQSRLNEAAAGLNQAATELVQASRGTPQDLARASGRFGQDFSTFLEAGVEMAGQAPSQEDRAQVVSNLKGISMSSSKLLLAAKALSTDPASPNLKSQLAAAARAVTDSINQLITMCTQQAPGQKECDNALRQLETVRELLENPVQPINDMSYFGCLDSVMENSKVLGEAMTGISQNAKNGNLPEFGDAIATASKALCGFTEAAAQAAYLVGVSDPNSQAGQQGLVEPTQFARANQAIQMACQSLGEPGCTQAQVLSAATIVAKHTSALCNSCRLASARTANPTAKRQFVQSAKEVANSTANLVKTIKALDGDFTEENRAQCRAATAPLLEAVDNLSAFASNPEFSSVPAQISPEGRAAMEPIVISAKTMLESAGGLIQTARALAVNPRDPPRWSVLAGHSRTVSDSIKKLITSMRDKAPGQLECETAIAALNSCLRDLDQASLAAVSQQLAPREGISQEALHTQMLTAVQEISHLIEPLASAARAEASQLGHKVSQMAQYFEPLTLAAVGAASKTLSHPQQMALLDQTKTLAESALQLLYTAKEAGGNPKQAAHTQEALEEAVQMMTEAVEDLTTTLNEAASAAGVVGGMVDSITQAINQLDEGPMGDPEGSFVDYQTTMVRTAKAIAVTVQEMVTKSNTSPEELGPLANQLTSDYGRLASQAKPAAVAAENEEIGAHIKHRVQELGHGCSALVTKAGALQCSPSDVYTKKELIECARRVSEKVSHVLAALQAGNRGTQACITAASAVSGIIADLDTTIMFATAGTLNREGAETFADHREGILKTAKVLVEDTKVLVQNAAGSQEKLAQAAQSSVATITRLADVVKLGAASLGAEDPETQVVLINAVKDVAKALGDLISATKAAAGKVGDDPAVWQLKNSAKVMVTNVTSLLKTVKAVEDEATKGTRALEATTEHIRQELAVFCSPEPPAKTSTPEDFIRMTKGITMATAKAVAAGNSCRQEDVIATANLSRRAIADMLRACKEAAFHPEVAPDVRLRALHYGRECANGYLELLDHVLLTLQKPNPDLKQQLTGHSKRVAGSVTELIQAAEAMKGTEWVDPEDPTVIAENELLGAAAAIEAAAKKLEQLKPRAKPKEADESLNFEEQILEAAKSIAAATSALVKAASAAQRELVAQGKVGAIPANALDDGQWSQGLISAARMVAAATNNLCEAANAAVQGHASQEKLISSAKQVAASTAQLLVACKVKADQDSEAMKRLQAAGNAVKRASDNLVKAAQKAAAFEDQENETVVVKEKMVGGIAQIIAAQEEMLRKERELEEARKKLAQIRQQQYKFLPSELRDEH

effect of a mutation on the interaction	Variant
disrupting interaction	W765A
decreasing interaction	Y773A
decreasing interaction	F753A;F756A
